Measurements as given in publication PMC9190012, “Heparin activation of protein Z-dependent protease inhibitor (ZPI) allosterically blocks protein Z activation through an extended heparin-binding site” (The Journal of Biological Chemistry, 2022).

How the values were obtained:
K239C-NBD-ZPI = target: T1, K239C-NBD-ZPI (Homo sapiens, UniProt Q9UK55, C190A/C285S/K260C); experiment: Fluorescence emission spectra of K239C-NBD-ZPI with PZ and heparin; assay type: binding; conditions: saturating PZ added to NBD-labeled ZPI
T1 construct: made in house; host or cells: Escherichia coli
T1 sequence (Q9UK55 22-444 C190A/K260C/C285S): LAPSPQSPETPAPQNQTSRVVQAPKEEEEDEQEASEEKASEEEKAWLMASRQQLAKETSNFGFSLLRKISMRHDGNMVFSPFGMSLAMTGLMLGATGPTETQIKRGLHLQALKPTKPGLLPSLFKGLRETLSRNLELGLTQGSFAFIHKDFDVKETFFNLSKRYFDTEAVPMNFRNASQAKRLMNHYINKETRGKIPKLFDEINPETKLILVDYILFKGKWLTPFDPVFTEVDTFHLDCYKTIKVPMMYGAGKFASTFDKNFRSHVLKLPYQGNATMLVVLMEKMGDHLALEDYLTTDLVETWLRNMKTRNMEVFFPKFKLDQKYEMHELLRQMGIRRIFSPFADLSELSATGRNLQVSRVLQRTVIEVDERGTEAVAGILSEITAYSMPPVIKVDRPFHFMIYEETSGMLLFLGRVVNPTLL
Protocol: Fluorescence emission spectra of NBD-ZPI (50–100 nM) were measured in the absence or the presence of PZ and heparin in 20 mM Tris buffer (pH 7.4), 0.2 M NaCl, 0.1% PEG 8000, 1 mg/ml bovine serum albumin (BSA), and 2.5 mM CaCl2 with an SLM 8000 spectrofluorometer with excitation at 480 nm over the emission range of 500 to 600 nm. Intrinsic protein fluorescence of WT and mutant ZPIs (200 nM to 1 μM) was measured in the same buffer without BSA, with excitation at 280 nm over the emission range of 300 to 400 nm. Emission was monitored in 5-nm steps with 5 to 10 s of integrations per step. Spectra were obtained in triplicate and averaged. Buffer, buffer plus PZ, or buffer plus heparin background spectra were subtracted, and dilution corrections were made for added PZ or heparin (<10%).

NBD-ZPI–PZ interactions = target: T2, NBD-ZPI–PZ interactions (Homo sapiens, UniProt Q9UK55, C190A/C285S/K260C); experiment: Titrations of NBD-ZPI with PZ in absence and presence of fixed levels of heparin; assay type: binding; conditions: no heparin; 50 nM NBD-ZPI, 0.2 M NaCl buffer; read-out: ZPI–PZ KD,PZapp
T2 construct: made in house; host or cells: Escherichia coli
T2 sequence (Q9UK55 22-444 C190A/K260C/C285S): T1 sequence (Q9UK55 22-444 C190A/K260C/C285S)
Protocol: The effect of heparin on PZ binding to ZPI was measured by titrations of 50 nM NBD-ZPI with PZ in the absence and presence of different fixed levels of heparins of various lengths in the higher ionic strength buffer used for emission spectra. Titrations were monitored from the enhancement of NBD-ZPI fluorescence that signals PZ binding. These titrations were fit by the quadratic binding equation, ΔFobs/F0=ΔFmax/F0×[ZPI]0+[PZ]0+KD,PZapp−([ZPI]0+[PZ]0+KD,PZapp)^2−4×[ZPI]0×[PZ]0/2×[ZPI]0 where ΔFobs/Fo and ΔFmax/Fo are the observed and maximal fluorescence changes after addition of PZ expressed relative to the initial free NBD-ZPI fluorescence, respectively, and KD,PZapp = KD,PZ × (1 + [H]o/KD,H) is the apparent dissociation constant for the ZPI–PZ interaction in the absence or presence of heparin. The fitted parameters were KD,PZapp and ΔFmax/Fo.

- enhancement in NBD fluorescence (K239C-NBD-ZPI): ~300%
- Kd (NBD-ZPI–PZ interactions): 9 ± 1.2 nM
Substance: PZ: human plasma protein Z, cofactor of ZPI, from Enzyme Research Laboratories
